Data published in paper PMC4646777 (Science Advances, 2015).
Where a chain is given by its changes, count along the chain named. No end group written: not given here.

How the values were obtained:
Assay in all cases: AlphaScreen or HTRF
[1] = target: T1, H6-tagged OsTPL N-terminal domain (TPD), TPL(1–209) (rice, UniProt Q0J7U6 1-209)
T1 sequence (looked up): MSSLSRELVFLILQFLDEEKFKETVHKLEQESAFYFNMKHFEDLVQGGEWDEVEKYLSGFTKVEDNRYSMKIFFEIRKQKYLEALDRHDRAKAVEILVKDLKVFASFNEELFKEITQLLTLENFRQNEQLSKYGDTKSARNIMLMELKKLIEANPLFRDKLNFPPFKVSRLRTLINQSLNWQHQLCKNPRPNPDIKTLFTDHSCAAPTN

[2] = target: T2, H6-tagged OsTPR2 N-terminal domain (TPD), TPR2(1–210) (rice, UniProt Q5NBT9 1-210)
T2 sequence (looked up): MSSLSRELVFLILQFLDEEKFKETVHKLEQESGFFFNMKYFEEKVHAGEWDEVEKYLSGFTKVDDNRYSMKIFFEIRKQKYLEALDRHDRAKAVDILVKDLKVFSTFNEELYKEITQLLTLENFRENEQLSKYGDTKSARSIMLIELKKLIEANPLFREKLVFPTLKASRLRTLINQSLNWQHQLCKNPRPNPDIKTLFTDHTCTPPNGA

[3] = target: T3, H6-tagged Arabidopsis TPR3 N-terminal domain, TPR3(1–209) (Arabidopsis, UniProt Q84JM4 1-209)
T3 sequence (looked up): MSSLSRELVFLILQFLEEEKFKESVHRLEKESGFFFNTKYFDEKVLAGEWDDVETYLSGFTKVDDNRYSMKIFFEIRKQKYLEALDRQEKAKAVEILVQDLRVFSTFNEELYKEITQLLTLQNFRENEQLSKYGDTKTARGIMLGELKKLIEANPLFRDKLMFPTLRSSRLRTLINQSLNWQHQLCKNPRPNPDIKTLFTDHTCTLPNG

[4] = target: T4, H6-tagged Arabidopsis TPL N-terminal domain, TPL(1–209) (Arabidopsis, UniProt Q94AI7 1-209)
T4 sequence (looked up): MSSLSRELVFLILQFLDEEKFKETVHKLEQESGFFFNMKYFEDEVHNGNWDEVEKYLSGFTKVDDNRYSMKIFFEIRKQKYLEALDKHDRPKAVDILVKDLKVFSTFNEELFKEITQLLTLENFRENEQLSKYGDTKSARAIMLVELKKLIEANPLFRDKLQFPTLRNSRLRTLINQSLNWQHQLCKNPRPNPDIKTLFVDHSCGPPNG

[5] = target: T5, H6-tagged Arabidopsis TPR1 N-terminal domain, TPR1(1–209) (Arabidopsis, UniProt Q0WV90 1-209)
T5 sequence (looked up): T4 sequence (looked up) with K87R, N168T, G205R, P206L, G209D

[6] = target: T6, H6-tagged Arabidopsis TPR4 N-terminal domain, TPR4(1–209) (Arabidopsis, UniProt Q27GK7 1-209)
T6 sequence (looked up): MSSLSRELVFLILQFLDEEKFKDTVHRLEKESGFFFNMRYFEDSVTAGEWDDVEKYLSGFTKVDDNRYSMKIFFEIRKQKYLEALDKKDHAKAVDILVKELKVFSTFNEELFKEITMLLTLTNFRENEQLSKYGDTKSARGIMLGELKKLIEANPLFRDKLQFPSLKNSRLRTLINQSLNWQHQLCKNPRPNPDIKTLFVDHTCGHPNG

[7] = target: T7, H6-tagged Arabidopsis TPR2 N-terminal domain, TPR2(1–209) (Arabidopsis, UniProt Q9LRZ0 1-209)
T7 sequence (looked up): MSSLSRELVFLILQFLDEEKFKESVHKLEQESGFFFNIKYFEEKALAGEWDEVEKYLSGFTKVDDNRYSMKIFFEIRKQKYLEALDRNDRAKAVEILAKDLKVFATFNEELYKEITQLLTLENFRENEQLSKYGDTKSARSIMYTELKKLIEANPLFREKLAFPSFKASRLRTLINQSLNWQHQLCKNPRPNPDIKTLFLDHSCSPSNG

[8] = target: T8, H6-tagged OsTPR1 N-terminal domain (TPD), TPR1(1–209) (rice, UniProt Q10NY2 1-209)
T8 sequence (looked up): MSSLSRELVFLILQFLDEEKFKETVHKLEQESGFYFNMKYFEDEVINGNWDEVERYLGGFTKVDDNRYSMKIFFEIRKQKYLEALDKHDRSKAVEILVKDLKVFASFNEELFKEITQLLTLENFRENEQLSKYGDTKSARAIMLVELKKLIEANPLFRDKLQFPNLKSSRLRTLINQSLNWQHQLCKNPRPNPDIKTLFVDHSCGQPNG

binding result [1]: binds
binding result [2]: binds
binding result [3]: binds
binding result [4]: binds
binding result [5]: binds
binding result [6]: binds
binding result [7]: binds
binding result [8]: binds
Binder: DNGLELSLGLSC (also: biotinylated, end not given here) [biotinylated NINJA EAR motif peptide (12 amino acids, wild type)]
